Source: the supplement of paper PMC10065799, “High-throughput profiling of sequence recognition by tyrosine kinases and SH2 domains using bacterial peptide display” (eLife, 2023)

Assays:
c-Src SH2 = assay: SH2 binding enrichment of the phosphorylated peptide, bacterial display (enrichment ratio); higher = better substrate or ligand; peptides without Tyr show the background
Grb2 SH2 = Grb2 SH2 (UniProt P62993); assay: as above
SHP2-C SH2 = assay: as above
FGFR1 = FGFR1 (UniProt P11362); assay: phosphorylation enrichment, bacterial display (enrichment ratio); higher = better substrate or ligand; peptides without Tyr show the background
Sequence of FGFR1 (P11362 whole entry, looked up): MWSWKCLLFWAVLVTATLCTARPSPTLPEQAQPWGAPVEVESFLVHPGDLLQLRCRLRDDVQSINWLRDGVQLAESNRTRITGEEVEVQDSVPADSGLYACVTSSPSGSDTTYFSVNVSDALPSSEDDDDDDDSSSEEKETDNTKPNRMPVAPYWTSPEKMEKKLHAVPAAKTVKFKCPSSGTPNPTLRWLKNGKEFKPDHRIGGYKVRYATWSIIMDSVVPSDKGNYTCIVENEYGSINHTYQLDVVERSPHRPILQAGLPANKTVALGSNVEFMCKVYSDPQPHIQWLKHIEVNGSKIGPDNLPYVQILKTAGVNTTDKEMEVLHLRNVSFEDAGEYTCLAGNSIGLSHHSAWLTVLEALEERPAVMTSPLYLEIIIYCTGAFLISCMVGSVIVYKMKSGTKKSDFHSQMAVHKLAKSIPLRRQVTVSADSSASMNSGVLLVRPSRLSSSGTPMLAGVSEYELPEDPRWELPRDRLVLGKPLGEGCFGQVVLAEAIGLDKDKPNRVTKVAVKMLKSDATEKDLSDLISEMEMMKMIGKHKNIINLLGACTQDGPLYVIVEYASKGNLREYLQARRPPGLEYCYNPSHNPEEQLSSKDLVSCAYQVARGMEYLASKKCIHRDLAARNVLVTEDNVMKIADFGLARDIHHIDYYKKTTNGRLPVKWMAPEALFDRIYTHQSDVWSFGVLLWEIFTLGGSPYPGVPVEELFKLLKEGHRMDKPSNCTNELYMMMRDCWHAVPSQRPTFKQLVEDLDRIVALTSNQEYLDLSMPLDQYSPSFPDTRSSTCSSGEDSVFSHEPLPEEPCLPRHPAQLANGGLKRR

Fyn = Fyn (UniProt P06241); assay: as above
Sequence of Fyn (P06241 whole entry, looked up): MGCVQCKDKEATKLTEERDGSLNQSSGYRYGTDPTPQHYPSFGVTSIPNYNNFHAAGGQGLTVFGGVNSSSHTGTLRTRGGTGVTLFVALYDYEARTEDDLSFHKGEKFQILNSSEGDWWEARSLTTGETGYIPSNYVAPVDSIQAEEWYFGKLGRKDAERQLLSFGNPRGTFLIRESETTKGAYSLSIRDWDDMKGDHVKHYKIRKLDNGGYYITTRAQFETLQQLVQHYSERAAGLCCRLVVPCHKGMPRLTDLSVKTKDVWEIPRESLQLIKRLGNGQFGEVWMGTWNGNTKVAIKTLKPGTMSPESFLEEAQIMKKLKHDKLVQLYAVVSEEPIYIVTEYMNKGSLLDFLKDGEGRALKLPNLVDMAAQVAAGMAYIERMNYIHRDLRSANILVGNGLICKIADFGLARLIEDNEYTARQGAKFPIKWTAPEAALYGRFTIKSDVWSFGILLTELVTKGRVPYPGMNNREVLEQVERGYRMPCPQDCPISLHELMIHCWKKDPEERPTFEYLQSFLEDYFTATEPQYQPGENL

EPHB1 = EPHB1 (UniProt P54762); assay: as above
c-Src = assay: as above
AncSZ = assay: as above
c-Abl (mouse) = assay: as above
Jak2 = Jak2 (UniProt O60674); assay: as above
Sequence of Jak2 (O60674 whole entry, looked up): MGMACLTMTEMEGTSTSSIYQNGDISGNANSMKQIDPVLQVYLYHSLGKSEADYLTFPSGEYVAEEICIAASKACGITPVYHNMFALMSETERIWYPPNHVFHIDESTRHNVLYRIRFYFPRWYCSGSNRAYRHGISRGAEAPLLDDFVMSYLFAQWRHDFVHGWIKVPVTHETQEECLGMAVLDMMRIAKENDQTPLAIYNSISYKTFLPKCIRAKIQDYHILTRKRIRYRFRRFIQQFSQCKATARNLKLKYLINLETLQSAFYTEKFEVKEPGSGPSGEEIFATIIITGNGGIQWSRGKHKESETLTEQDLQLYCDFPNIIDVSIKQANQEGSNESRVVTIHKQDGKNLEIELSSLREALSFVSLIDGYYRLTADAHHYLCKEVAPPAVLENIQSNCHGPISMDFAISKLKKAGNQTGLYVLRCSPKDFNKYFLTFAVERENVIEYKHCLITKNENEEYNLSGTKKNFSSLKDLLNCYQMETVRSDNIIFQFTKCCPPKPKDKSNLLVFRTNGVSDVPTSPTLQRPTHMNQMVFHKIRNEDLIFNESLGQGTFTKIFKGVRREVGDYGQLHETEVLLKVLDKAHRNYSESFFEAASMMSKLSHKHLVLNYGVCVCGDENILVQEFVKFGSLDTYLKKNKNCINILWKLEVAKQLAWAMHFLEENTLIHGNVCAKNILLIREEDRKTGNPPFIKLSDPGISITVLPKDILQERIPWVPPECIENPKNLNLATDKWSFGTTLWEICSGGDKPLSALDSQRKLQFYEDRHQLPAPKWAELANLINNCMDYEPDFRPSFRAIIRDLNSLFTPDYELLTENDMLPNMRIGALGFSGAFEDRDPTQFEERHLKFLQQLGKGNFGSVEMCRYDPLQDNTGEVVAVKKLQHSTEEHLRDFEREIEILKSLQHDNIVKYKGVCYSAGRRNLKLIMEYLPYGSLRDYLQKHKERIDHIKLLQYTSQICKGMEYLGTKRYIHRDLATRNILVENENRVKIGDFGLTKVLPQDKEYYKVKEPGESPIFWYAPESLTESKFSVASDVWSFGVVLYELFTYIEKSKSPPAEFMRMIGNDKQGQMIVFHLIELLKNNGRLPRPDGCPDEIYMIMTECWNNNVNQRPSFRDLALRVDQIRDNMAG

EPHB2 = EPHB2 (UniProt P29323); assay: as above
Sequence of EPHB2 (P29323 whole entry, looked up): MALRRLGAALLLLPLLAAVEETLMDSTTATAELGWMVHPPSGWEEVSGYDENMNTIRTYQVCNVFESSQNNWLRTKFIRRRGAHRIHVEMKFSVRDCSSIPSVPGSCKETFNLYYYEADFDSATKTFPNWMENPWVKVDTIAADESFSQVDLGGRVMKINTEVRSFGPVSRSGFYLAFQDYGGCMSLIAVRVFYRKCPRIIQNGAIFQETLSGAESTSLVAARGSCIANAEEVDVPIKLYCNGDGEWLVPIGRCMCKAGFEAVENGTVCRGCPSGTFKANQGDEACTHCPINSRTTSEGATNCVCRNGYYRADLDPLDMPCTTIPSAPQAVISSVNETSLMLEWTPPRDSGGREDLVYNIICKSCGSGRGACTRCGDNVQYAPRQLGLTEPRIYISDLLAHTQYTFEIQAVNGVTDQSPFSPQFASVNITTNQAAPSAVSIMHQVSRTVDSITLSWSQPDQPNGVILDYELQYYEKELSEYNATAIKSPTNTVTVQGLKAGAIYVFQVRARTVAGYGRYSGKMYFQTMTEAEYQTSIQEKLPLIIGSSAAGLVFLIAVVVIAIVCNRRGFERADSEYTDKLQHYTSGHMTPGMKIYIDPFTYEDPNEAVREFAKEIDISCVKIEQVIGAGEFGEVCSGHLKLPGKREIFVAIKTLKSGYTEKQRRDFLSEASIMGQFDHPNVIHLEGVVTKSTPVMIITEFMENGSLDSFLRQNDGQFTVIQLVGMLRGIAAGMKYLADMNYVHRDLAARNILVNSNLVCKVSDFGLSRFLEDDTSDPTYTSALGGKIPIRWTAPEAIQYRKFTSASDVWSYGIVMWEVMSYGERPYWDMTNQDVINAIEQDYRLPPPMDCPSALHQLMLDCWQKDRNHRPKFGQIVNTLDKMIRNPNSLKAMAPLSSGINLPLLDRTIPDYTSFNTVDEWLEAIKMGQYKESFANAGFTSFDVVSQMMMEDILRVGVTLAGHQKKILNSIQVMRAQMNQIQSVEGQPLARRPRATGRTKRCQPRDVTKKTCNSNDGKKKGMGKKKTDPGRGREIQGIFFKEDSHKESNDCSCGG

Fes = Fes (UniProt P07332); assay: as above
FGFR3 = FGFR3 (UniProt P22607); assay: as above
Sequence of FGFR3 (P22607 whole entry, looked up): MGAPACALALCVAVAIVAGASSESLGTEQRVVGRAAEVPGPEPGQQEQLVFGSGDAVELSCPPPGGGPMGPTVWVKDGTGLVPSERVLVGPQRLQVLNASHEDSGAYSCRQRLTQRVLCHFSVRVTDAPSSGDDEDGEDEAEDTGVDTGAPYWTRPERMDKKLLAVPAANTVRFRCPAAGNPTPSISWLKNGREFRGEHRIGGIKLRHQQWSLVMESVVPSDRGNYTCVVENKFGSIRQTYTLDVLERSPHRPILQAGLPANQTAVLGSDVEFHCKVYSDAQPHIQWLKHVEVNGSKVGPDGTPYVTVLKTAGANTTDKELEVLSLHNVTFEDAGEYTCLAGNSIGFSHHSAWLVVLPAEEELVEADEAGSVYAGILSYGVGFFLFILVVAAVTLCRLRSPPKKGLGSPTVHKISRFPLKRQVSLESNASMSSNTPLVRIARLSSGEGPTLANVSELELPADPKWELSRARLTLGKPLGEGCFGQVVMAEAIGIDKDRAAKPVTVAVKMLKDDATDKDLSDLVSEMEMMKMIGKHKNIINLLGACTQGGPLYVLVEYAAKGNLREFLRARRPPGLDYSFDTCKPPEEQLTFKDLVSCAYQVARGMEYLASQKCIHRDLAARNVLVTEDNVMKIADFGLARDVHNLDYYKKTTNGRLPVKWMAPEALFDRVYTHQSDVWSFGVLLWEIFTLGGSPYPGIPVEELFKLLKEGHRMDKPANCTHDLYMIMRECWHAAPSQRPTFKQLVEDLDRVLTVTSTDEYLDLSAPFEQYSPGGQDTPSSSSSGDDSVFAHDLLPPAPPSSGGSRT

Hck = Hck (UniProt P08631); assay: as above
Sequence of Hck (P08631 whole entry, looked up): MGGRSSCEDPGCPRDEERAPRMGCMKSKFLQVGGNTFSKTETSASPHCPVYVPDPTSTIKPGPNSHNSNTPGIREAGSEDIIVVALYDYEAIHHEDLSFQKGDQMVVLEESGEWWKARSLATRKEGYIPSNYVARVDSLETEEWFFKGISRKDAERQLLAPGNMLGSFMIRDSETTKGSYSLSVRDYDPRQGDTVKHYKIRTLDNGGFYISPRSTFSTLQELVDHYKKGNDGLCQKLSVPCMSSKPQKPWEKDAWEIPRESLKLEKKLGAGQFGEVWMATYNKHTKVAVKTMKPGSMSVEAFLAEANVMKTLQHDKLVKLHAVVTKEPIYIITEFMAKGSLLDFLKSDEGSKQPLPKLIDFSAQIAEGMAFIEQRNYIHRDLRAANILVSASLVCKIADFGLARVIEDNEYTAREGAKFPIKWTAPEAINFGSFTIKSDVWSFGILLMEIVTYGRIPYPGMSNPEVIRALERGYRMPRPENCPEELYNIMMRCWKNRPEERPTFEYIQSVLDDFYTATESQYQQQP

Fer (mouse) = assay: as above
MERTK = MERTK (UniProt Q12866); assay: as above
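Throughout, for SH2 binding enrichment of the phosphorylated peptide, bacterial display: peptide library displayed on the E. coli surface as eCPX fusions, selected cells deep-sequenced, score is each peptide's frequency after selection divided by its frequency in the input.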
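Throughout, for phosphorylation enrichment, bacterial display: 11-residue human phosphosite peptides and single-mutation variants displayed on the E. coli surface, counted by deep sequencing, each peptide's frequency after selection divided by its frequency in the unselected input library; frequency after pTyr selection over input frequency; kinase dosed for 20-30% of maximal phosphorylation in three min.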

Row | Sequence | SH2 binding enrichment (c-Src SH2) | SH2 binding enrichment (Grb2 SH2) | SH2 binding enrichment (SHP2-C SH2) | phosphorylation enrichment (FGFR1) | phosphorylation enrichment (Fyn) | phosphorylation enrichment (EPHB1) | phosphorylation enrichment (c-Src) | phosphorylation enrichment (AncSZ) | phosphorylation enrichment (c-Abl (mouse)) | phosphorylation enrichment (Jak2) | phosphorylation enrichment (EPHB2) | phosphorylation enrichment (Fes) | phosphorylation enrichment (FGFR3) | phosphorylation enrichment (Hck) | phosphorylation enrichment (Fer (mouse)) | phosphorylation enrichment (MERTK)
1 | SFPPTYRYERG [INPPL1_Y661] | 0.489 | 0.831 | 0.605 | 0.498 | 0.431 | 0.362 | 0.427 | 0.73 | 0.373 | 0.449 | 0.43 | 0.592 | 0.49 | 0.437 | 0.29 | 0.505
2 | SGIYQYIIAKF [FOXL2_Y83] | 1.07 | 1.24 | 1.05 | 6.4 | 4.03 | 10.6 | 3.69 | 1.15 | 6.06 | 0.852 | 5.98 | 1.72 | 4.7 | 6.52 | 9.49 | 8.1
3 | SGIYQYNIAKF [FOXL2_Y83_I84N] | 1.01 | 0.976 | 0.875 | 0.659 | 3.42 | 2.14 | 3.79 | 0.898 | 4.58 | 0.593 | 1.56 | 0.732 | 0.605 | 4.76 | 14.7 | 9.83
4 | SGSIHYSRVPR [GLB1_Y57] | 0.861 | 0.734 | 0.824 | 0.772 | 0.605 | 0.542 | 0.677 | 0.629 | 0.716 | 0.772 | 0.436 | 0.763 | 0.578 | 0.529 | 0.535 | 0.64
5 | SHSMKYFDTAV [HLA-C_Y31_R30K] | 0.417 | 1.01 | 0.71 | 0.396 | 0.356 | 0.36 | 0.395 | 0.579 | 0.469 | 0.785 | 0.389 | 0.572 | 0.432 | 0.392 | 0.357 | 0.436
6 | SIIKDYFHRGA [GATM_Y203] | 0.537 | 0.87 | 0.607 | 0.48 | 0.407 | 0.376 | 0.477 | 0.579 | 0.525 | 0.764 | 0.438 | 0.679 | 0.455 | 0.43 | 0.433 | 0.397
7 | SIKDKYVTAFF [KCNH2_Y611_L615F_YF] | 0.589 | 1.04 | 0.848 | 0.403 | 0.399 | 0.363 | 0.372 | 0.582 | 0.635 | 0.526 | 0.44 | 0.731 | 0.489 | 0.4 | 0.483 | 0.369
8 | SISLRYEGRVF [ABL1_Y167_YF] | 0.68 | 1.05 | 0.926 | 0.524 | 0.438 | 0.636 | 0.372 | 1.25 | 0.696 | 0.918 | 0.703 | 1.26 | 0.838 | 0.507 | 0.686 | 0.384
9 | SISLRYEGRVY [ABL1_Y167] | 0.685 | 1.11 | 0.881 | 0.484 | 0.513 | 0.606 | 0.394 | 1.07 | 0.803 | 1.06 | 0.563 | 1.09 | 0.776 | 0.506 | 0.546 | 0.428
10 | SLRAHYDTPRS [DOK7_Y405] | 3.32 | 0.712 | 0.914 | 0.343 | 0.349 | 0.392 | 0.298 | 0.428 | 0.412 | 0.402 | 0.351 | 0.448 | 0.351 | 0.328 | 0.367 | 0.319
11 | SMAKYYASEIA [ACADSB_Y373] | 0.48 | 0.756 | 0.634 | 0.426 | 0.404 | 0.459 | 0.452 | 0.601 | 0.682 | 0.599 | 0.433 | 0.701 | 0.478 | 0.473 | 0.495 | 0.46
12 | SMEGLYSSTQD [CLIC5_Y111] | 0.542 | 0.777 | 0.446 | 0.698 | 3.51 | 1.94 | 3.13 | 1.57 | 1.03 | 1.36 | 2.27 | 1.71 | 0.905 | 4.12 | 3.64 | 2.43
13 | SNKLTYGTMVF [ACOX1_Y275] | 0.504 | 0.925 | 1.05 | 0.459 | 5.28 | 0.505 | 4.65 | 0.773 | 0.836 | 0.863 | 0.604 | 1.02 | 0.573 | 2.9 | 0.631 | 0.495
14 | SPPPAYTPMSG [ERBB4_Y1056] | 0.92 | 0.846 | 0.811 | 0.41 | 0.483 | 0.438 | 0.388 | 0.522 | 0.459 | 0.503 | 0.429 | 0.503 | 0.457 | 0.45 | 0.379 | 0.529
15 | SQDSAYHSGIQ [FLG_Y3940] | 0.529 | 0.899 | 0.544 | 0.4 | 0.421 | 0.532 | 0.386 | 0.557 | 0.506 | 0.492 | 0.366 | 0.614 | 0.512 | 0.678 | 0.404 | 0.489
16 | SSQAHYRLSAF [ADAMTS9_Y100] | 0.43 | 0.816 | 0.721 | 0.399 | 0.449 | 0.452 | 0.41 | 0.65 | 0.481 | 0.482 | 0.426 | 0.584 | 0.584 | 0.434 | 0.347 | 0.368
17 | SSSAIYDNPDL [DCP1B_Y191_N195D] | 1.94 | 0.667 | 0.621 | 0.519 | 3.81 | 7.52 | 2.7 | 1.29 | 9.33 | 0.914 | 10.9 | 1.07 | 0.651 | 5.17 | 6.58 | 5.29
18 | SVKVFYKKCWS [EPHA7_Y202_YF] | 0.396 | 0.747 | 0.707 | 0.507 | 0.424 | 0.621 | 0.59 | 1.14 | 0.965 | 1.21 | 0.647 | 1.49 | 0.841 | 0.457 | 0.532 | 0.409

Further lines, with some results ahead:

Row | SH2 binding enrichment (c-Src SH2) | SH2 binding enrichment (Grb2 SH2) | SH2 binding enrichment (SHP2-C SH2) | Sequence | phosphorylation enrichment (FGFR1) | phosphorylation enrichment (Fyn) | phosphorylation enrichment (EPHB1) | phosphorylation enrichment (c-Src) | phosphorylation enrichment (AncSZ) | phosphorylation enrichment (c-Abl (mouse)) | phosphorylation enrichment (Jak2) | phosphorylation enrichment (EPHB2) | phosphorylation enrichment (Fes) | phosphorylation enrichment (FGFR3) | phosphorylation enrichment (Hck) | phosphorylation enrichment (Fer (mouse)) | phosphorylation enrichment (MERTK)
19 | 0.471 | 0.663 | 0.543 | SFSGEYGGGGG [ZG16_Y30_YF] | 0.496 | 0.348 | 0.392 | 0.423 | 0.62 | 0.505 | 0.47 | 0.467 | 0.571 | 0.35 | 0.397 | 0.413 | 0.306
20 | 0.586 | 0.808 | 0.766 | SGPRCYTIAAL [TTR_Y125_R124C] | 0.392 | 0.405 | 0.41 | 0.399 | 0.617 | 0.46 | 0.535 | 0.403 | 0.669 | 0.462 | 0.354 | 0.554 | 0.344
21 | 1.35 | 1.06 | 1.19 | SGPRHYTIAAL [TTR_Y125_R124H] | 0.404 | 0.455 | 0.516 | 0.455 | 0.59 | 0.524 | 0.525 | 0.51 | 0.66 | 0.509 | 0.468 | 0.438 | 0.464
22 | 0.444 | 0.921 | 0.657 | SKNYTYIWWLN [PSG4_Y271] | 0.589 | 0.343 | 0.582 | 0.273 | 1.09 | 0.676 | 1.09 | 0.58 | 1.14 | 0.77 | 0.4 | 0.638 | 0.332
23 | 0.578 | 2.46 | 0.949 | SLMNQYVNKEF [RAB7A_Y28_K32E] | 0.373 | 0.461 | 0.392 | 0.459 | 0.58 | 0.482 | 0.442 | 0.554 | 0.66 | 0.568 | 0.469 | 0.385 | 0.383
24 | 0.456 | 0.722 | 0.581 | SLNEVYTKNKT [MSH2_Y563_E562V] | 0.446 | 0.411 | 0.375 | 0.431 | 0.641 | 0.437 | 0.514 | 0.411 | 0.727 | 0.444 | 0.38 | 0.328 | 0.423
25 | 0.403 | 0.767 | 0.753 | SREDIYKRNIE [PDE4DIP_Y45] | 0.5 | 0.591 | 0.422 | 0.405 | 0.659 | 0.654 | 0.7 | 0.553 | 0.81 | 0.585 | 0.603 | 0.431 | 0.366
26 | 0.645 | 0.848 | 0.616 | SSMNDYNPLEK [MYOC_Y479_I477N] | 0.456 | 0.4 | 0.422 | 0.502 | 0.797 | 0.625 | 1.07 | 0.454 | 0.977 | 0.578 | 0.479 | 0.397 | 0.614
27 | 0.829 | 0.86 | 1.66 | SSPQPYLVPFL [TAF4_Y652] | 0.522 | 0.497 | 0.415 | 0.49 | 0.857 | 1.09 | 2.85 | 0.867 | 0.78 | 0.746 | 0.481 | 0.466 | 0.514
28 | 2.24 | 0.777 | 3 | SSVAGYACLAY [MVD_Y131_A128V] | 0.495 | 0.466 | 0.564 | 0.554 | 0.898 | 0.768 | 0.852 | 0.582 | 0.994 | 0.701 | 0.538 | 0.587 | 0.463
29 | 1.99 | 0.905 | 1 | SSYSGYIMMPN [LEF1_Y114] | 3.79 | 0.571 | 0.923 | 0.684 | 0.858 | 0.486 | 5.39 | 1.09 | 0.718 | 2.38 | 0.51 | 0.604 | 2.47
30 | 0.476 | 0.878 | 0.837 | STGRSYAGVAV [KLHL3_Y577] | 0.482 | 0.345 | 0.25 | 0.302 | 0.43 | 0.361 | 0.389 | 0.3 | 0.466 | 0.389 | 0.315 | 0.31 | 0.318
31 | 0.476 | 0.74 | 0.758 | STSKTYVISRT [RBBP6_Y87] | 0.503 | 0.416 | 0.387 | 0.444 | 0.628 | 0.423 | 0.527 | 0.426 | 0.497 | 0.498 | 0.465 | 0.396 | 0.417
32 | 0.692 | 0.968 | 0.733 | SVCPDYDLCSI [SQSTM1_Y148_V153I] | 0.709 | 0.868 | 0.942 | 0.801 | 1.72 | 0.876 | 1.11 | 0.914 | 1.16 | 0.763 | 0.599 | 2.9 | 0.616
33 | 0.444 | 0.718 | 0.861 | SVGVPYEPPEV [TP53_Y220_V217G] | 0.523 | 0.545 | 0.534 | 0.509 | 1.16 | 0.881 | 1.09 | 0.57 | 1.29 | 0.748 | 0.577 | 0.585 | 0.485
